According to patent US20260250421A1 (BIOCYTOGEN PHARMACEUTICALS BEIJING, published 2026):
Residue numbers refer to the chain shown, from its start. One block for each binder: values may come before it.

Assays:
Test in all cases: SPR Biacore 8K, Ab on Protein A chip
[1] = target: T1, His-tagged human PTK7 protein (human, UniProt Q13308 31-704)
T1 construct: Bought protein; also called hPTK7-His; not shown: His tag
T1 sequence: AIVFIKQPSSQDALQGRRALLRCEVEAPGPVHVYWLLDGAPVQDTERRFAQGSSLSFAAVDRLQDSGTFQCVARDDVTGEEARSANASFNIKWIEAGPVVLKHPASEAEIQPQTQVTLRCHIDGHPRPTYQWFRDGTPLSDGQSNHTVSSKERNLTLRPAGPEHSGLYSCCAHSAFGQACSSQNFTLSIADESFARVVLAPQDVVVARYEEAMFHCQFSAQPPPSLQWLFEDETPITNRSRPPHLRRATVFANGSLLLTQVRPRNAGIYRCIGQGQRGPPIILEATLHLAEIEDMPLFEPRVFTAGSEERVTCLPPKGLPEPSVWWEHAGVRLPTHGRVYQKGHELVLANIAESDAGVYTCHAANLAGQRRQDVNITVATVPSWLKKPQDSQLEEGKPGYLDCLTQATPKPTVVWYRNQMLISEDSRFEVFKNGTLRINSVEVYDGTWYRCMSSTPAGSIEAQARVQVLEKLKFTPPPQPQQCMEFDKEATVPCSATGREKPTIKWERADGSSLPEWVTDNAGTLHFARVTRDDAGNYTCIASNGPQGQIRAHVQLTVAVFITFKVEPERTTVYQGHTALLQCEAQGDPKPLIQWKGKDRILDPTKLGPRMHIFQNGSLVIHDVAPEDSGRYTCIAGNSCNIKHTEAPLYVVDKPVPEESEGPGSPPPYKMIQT
Method: (§1) The affinity of the anti-PTK7/TROP2 bispecific antibodies to His-tagged human TROP2 protein (hTROP2-His, ACRO Biosystems Inc., Cat #: TR2-H5223), His-tagged […] monkey TROP2 protein (cTROP2-His, ACRO Biosystems Inc., Cat #: Cat: TR2-R52H3), His-tagged dog TROP2 protein (dTROP2-His, ACRO Biosystems Inc., Cat #: TR2-C52H4), hPTK7-His, cPTK7-His and dPTK7-His were measured by surface plasmon resonance (SPR) using Biacore™ (Biacore, INC, Piscataway N.J.) 8K biosensor equipped with pre-immobilized Protein A sensor chips.

[2] = target: T2, His-tagged cynomolgus monkey PTK7 protein (cynomolgus monkey, UniProt A0A2K5VNI5 39-712)
T2 construct: Bought protein; also called cPTK7-His; ACRO Biosystems Cat# PT7-C52H3; not shown: His tag
T2 sequence: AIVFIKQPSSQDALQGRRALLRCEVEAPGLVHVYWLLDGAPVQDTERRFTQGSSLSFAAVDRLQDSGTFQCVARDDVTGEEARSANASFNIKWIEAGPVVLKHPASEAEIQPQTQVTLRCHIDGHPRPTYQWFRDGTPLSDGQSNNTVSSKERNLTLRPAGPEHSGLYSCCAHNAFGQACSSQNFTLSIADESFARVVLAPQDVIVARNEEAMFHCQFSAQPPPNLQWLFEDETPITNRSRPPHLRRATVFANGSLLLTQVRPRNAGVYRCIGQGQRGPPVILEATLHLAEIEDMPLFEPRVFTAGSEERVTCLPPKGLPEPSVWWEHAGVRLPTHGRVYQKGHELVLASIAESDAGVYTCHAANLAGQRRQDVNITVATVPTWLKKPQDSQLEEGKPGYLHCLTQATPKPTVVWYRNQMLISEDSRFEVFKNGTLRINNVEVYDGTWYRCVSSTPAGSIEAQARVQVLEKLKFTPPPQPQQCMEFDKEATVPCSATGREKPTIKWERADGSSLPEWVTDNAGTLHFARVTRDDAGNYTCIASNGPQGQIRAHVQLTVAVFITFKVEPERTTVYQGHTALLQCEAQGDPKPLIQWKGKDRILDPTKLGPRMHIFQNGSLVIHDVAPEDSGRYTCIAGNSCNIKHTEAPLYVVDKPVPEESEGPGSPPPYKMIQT
Method: as §1

[3] = target: T3, His-tagged dog PTK7 protein (dog, UniProt Q13308 31-703 (human entry))
T3 construct: also called dPTK7-His
T3 chain: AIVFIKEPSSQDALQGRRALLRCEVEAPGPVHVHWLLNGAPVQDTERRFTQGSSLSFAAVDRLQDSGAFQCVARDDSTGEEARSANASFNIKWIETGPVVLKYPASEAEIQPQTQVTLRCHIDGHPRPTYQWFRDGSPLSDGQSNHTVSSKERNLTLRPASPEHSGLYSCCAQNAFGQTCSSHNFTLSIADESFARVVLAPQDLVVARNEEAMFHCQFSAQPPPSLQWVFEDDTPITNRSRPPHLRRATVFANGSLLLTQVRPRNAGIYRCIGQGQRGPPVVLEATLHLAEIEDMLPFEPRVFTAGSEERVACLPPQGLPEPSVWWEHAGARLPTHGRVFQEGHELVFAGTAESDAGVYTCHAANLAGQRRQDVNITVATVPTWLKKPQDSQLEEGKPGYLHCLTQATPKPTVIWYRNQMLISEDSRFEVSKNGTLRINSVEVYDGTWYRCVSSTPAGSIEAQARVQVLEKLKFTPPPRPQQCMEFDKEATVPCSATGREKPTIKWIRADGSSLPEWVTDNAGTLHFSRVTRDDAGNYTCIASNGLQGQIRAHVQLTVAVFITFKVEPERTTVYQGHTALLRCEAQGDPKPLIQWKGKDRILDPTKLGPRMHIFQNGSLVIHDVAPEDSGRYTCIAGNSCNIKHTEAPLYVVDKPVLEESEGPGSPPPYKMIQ
Method: as §1

[4] = target: T4, His-tagged human TROP2 protein (human, UniProt P09758 27-274)
T4 construct: Bought protein; also called hTROP2-His; ACRO Biosystems Cat# TR2-H5223; not shown: His tag
T4 sequence (looked up): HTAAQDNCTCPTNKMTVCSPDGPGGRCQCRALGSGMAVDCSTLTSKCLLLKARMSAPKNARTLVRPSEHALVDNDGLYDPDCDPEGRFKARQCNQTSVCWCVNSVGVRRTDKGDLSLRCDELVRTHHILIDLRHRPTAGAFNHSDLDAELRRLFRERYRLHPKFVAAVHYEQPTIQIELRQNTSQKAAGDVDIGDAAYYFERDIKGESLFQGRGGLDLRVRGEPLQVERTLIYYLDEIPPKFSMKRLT
Method: as §1

[5] = target: T5, His-tagged monkey TROP2 protein (cynomolgus monkey; Rhesus …, UniProt A0A5F8AGB8 27-274)
T5 construct: also called cTROP2-His; ACRO Biosystems Cat# TR2-R52H3
T5 sequence: T4 sequence (looked up) with M36V, S67N, I204V

Kd [1]: 3.14 nM
koff [1]: 0.000389 s⁻¹
kon [1]: 124000 M⁻¹ s⁻¹
Kd [2]: 5.2 nM
koff [2]: 0.000623 s⁻¹
kon [2]: 120000 M⁻¹ s⁻¹
Kd [3]: 16.7 nM
koff [3]: 0.00164 s⁻¹
kon [3]: 98300 M⁻¹ s⁻¹
Kd [4]: 3.23 nM
koff [4]: 0.00116 s⁻¹
kon [4]: 360000 M⁻¹ s⁻¹
Kd [5]: 3.66 nM
koff [5]: 0.00119 s⁻¹
kon [5]: 325000 M⁻¹ s⁻¹
B1: 3E6-18E9 (bispecific antibody, V domains shown)
VH 1: QVQLVESGAEVKKPGESLRISCRGSGYSFTSYWISWVRQMPGKGLEWMGRIDPSDSYTKYSPSFQGHVTISADKSISTAYLQWSSLKASDTAMYYCARRDGDYFDFDYWGQGTLVTVSS
VH 2: QLQLQQSGPGLLKPSETLSLTCTVSGGSISSSYYFWGWIRQPPGKGLEWIGAIYYIGNTHYNPSLKSRVTISIDTSKNQFSLNLNSVTAADTAIYYCARYEDTWNWFDPWGQGTLVTVSS
VL: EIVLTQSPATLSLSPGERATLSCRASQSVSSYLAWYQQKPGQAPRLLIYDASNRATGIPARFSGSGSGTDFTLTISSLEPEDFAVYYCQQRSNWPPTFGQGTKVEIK
notes: also called anti-PTK7/TROP2 bispecific antibody 3E6-18E9

Kd [1]: 11.5 nM
koff [1]: 0.00139 s⁻¹
kon [1]: 121000 M⁻¹ s⁻¹
Kd [2]: 14.8 nM
koff [2]: 0.00173 s⁻¹
kon [2]: 117000 M⁻¹ s⁻¹
Kd [3]: 36.2 nM
koff [3]: 0.00426 s⁻¹
kon [3]: 118000 M⁻¹ s⁻¹
Kd [4]: 11.2 nM
koff [4]: 0.0025 s⁻¹
kon [4]: 224000 M⁻¹ s⁻¹
Kd [5]: 12.1 nM
koff [5]: 0.00252 s⁻¹
kon [5]: 209000 M⁻¹ s⁻¹
B2: 3C4-18F12 (bispecific antibody, V domains shown)
VH 1: B1 VH 1 with V5E, E6Q, G8R, R23K, K59N, S61N, D102S
VH 2: QLQLKESGPGLVKPSETLSLTCTVSGGSISYYYWSWIRQPPGMGLEWIGNIYYSGDTNYNPSLRSRVTISIDMSKNQFSLRLNSVTAADTAVYYCARYDMFKWNYEAFDVWGQGTMVTVSS
VL: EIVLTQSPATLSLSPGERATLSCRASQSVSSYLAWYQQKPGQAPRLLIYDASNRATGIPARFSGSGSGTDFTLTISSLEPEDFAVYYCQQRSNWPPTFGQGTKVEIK
notes: also called anti-PTK7/TROP2 bispecific antibody 3C4-18F12

Kd [1]: 2.67 nM
koff [1]: 0.000369 s⁻¹
kon [1]: 138000 M⁻¹ s⁻¹
Kd [2]: 4.6 nM
koff [2]: 0.000522 s⁻¹
kon [2]: 114000 M⁻¹ s⁻¹
Kd [3]: 20.6 nM
koff [3]: 0.00197 s⁻¹
kon [3]: 95500 M⁻¹ s⁻¹
Kd [4]: 351 nM
koff [4]: 0.0455 s⁻¹
kon [4]: 130000 M⁻¹ s⁻¹
Kd [5]: 8.07 nM
koff [5]: 0.00284 s⁻¹
kon [5]: 352000 M⁻¹ s⁻¹
B3: 3E6-6F7 (bispecific antibody, V domains shown)
VH 1: B1 VH 1
VH 2: EVQLVQSGPGLVKPSETLSLTCTVSGGSIDSGYYYWGWIRQPPGKGLEWIGSIYYIGTTYYIPSLKSRVTISVDTSKNRFSLKLTSVTAADTAVYYCARQPITVAGHDAFDIWGQGTMVTVSS
VL: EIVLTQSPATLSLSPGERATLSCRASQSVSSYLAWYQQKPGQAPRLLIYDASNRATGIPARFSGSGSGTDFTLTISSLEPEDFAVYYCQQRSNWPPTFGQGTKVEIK
notes: also called anti-PTK7/TROP2 bispecific antibody 3E6-6F7

Kd [1]: 2.43 nM
koff [1]: 0.000329 s⁻¹
kon [1]: 135000 M⁻¹ s⁻¹
Kd [2]: 4.98 nM
koff [2]: 0.000649 s⁻¹
kon [2]: 130000 M⁻¹ s⁻¹
Kd [3]: 16.4 nM
koff [3]: 0.00172 s⁻¹
kon [3]: 105000 M⁻¹ s⁻¹
Kd [4]: 13.7 nM
koff [4]: 0.00244 s⁻¹
kon [4]: 178000 M⁻¹ s⁻¹
Kd [5]: 13.9 nM
koff [5]: 0.00231 s⁻¹
kon [5]: 166000 M⁻¹ s⁻¹
B4: 3E6-18F12 (bispecific antibody, V domains shown)
VH 1: B1 VH 1
VH 2: B2 VH 2
VL: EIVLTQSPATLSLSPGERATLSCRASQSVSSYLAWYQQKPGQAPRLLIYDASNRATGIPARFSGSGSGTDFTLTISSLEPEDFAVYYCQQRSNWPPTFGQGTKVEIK
notes: also called anti-PTK7/TROP2 bispecific antibody 3E6-18F12

Kd [1]: 13.2 nM
koff [1]: 0.00152 s⁻¹
kon [1]: 115000 M⁻¹ s⁻¹
Kd [2]: 17.4 nM
koff [2]: 0.00216 s⁻¹
kon [2]: 124000 M⁻¹ s⁻¹
Kd [3]: 52.5 nM
koff [3]: 0.006 s⁻¹
kon [3]: 114000 M⁻¹ s⁻¹
Kd [4]: 10.6 nM
koff [4]: 0.00419 s⁻¹
kon [4]: 394000 M⁻¹ s⁻¹
Kd [5]: 5.94 nM
koff [5]: 0.00179 s⁻¹
kon [5]: 301000 M⁻¹ s⁻¹
B5: 3C4-6F7 (bispecific antibody, human IgG1, kappa)
heavy 1: not shown
heavy 2: EVQLVQSGPGLVKPSETLSLTCTVSGGSIDSGYYYWGWIRQPPGKGLEWIGSIYYIGTTYYIPSLKSRVTISVDTSKNRFSLKLTSVTAADTAVYYCARQPITVAGHDAFDIWGQGTMVTVSSASTKGPSVFPLAPSSKSTSGGTAALGCLVKDYFPEPVTVSWNSGALTSGVHTFPAVLQSSGLYSLSSVVTVPSSSLGTQTYICNVNHKPSNTKVDKKVEPKSCDKTHTCPPCPAPELLGGPSVFLFPPKPKDTLMISRTPEVTCVVVDVSHEDPEVKFNWYVDGVEVHNAKTKPREEQYNSTYRVVSVLTVLHQDWLNGKEYKCKVSNKALPAPIEKTISKAKGQPREPQVCTLPPSREEMTKNQVSLSCAVKGFYPSDIAVEWESNGQPENNYKTTPPVLDSDGSFFLVSKLTVDKSRWQQGNVFSCSVMHEALHNHYTQKSLSLSPGK
light: not shown
notes: Knobs-into-holes IgG1 with common light chain; also called anti-PTK7/TROP2 bispecific antibody 3C4-6F7
